{
  "source": "the supplement of paper PMC7125110",
  "parents": {"B1": {"name": "glmS ribozyme (parent)", "chain": "AUAAAAGCGCCAGAACUACAGAAAUGUAGUUGACGAGGAGGAGGUUUAUCGAAUUUUCGGCGGAUGCCUCCAAA"}},
  "details_in_all_cases": "with glucosamine-6-phosphate",
  "key": {"glucosamine-6-phosphate [1]": {"variants_of": "B1", "assay": "self-cleavage kobs at 40 uM GlcN6P; higher = faster cleavage; RNA array", "how_it_was_run": "(§1)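 Tiles of sequenced MiSeq chips were imaged over ~14 h at 37 °C. On them, barcoded ribozyme variants had been transcribed in situ by E. coli RNA polymerase and were tracked via a hybridised Cy3 probe while glucosamine-6-phosphate (40 μM to 10 mM) in HEPES/KCl/Mg(OAc)2 buffer flowed in. Per-tile medians, normalised to baseline and to non-cleaving reference variants, were fit to one- or two-exponential decays for kobs, and weighted Michaelis–Menten fits gave kcat and KM.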"}, "glucosamine-6-phosphate [2]": {"variants_of": "B1", "assay": "self-cleavage kobs at 2500 uM GlcN6P; higher = faster cleavage; RNA array", "how_it_was_run": "as §1"}, "glucosamine-6-phosphate [3]": {"variants_of": "B1", "assay": "self-cleavage kobs at 10000 uM GlcN6P; higher = faster cleavage; RNA array", "how_it_was_run": "as §1"}, "glucosamine-6-phosphate [4]": {"variants_of": "B1", "assay": "self-cleavage kobs at 640 uM GlcN6P; higher = faster cleavage; RNA array", "how_it_was_run": "as §1"}, "glucosamine-6-phosphate [5]": {"variants_of": "B1", "assay": "self-cleavage kobs at 160 uM GlcN6P; higher = faster cleavage; RNA array", "how_it_was_run": "as §1"}},
  "note": "± gives the standard error. Fewer inactive variants are shown than the library holds.",
  "data": [
    {"variant": "AUAAAAGCGCCUGAACUACAGAAAUGUAGUUGACGAGGAGGAGGAUUAUCGAAUUUUGGGCGGAUGCCUCGAAA", "values": [
      {"measurement": "self-cleavage kobs at 40 uM GlcN6P", "setting": "glucosamine-6-phosphate [1]", "result": "< 1e-05", "unit": "s⁻¹"},
      {"measurement": "self-cleavage kobs at 2500 uM GlcN6P", "setting": "glucosamine-6-phosphate [2]", "result": "4.36e-05 ± 1.4e-05", "unit": "s⁻¹"},
      {"measurement": "self-cleavage kobs at 10000 uM GlcN6P", "setting": "glucosamine-6-phosphate [3]", "result": "3.15e-05 ± 1.5e-05", "unit": "s⁻¹"}
    ]},
    {"variant": "AUAAAAGCGCCAGAACUACAGAAAUGUAGUUGACGUGGGGGAGGUUUAUCAAUUUUUCGGCGGAUGCCUCCAAA", "values": [
      {"measurement": "self-cleavage kobs at 40 uM GlcN6P", "setting": "glucosamine-6-phosphate [1]", "result": "< 1e-05", "unit": "s⁻¹"},
      {"measurement": "self-cleavage kobs at 640 uM GlcN6P", "setting": "glucosamine-6-phosphate [4]", "result": "< 1e-05", "unit": "s⁻¹"},
      {"measurement": "self-cleavage kobs at 2500 uM GlcN6P", "setting": "glucosamine-6-phosphate [2]", "result": "< 1e-05", "unit": "s⁻¹"},
      {"measurement": "self-cleavage kobs at 10000 uM GlcN6P", "setting": "glucosamine-6-phosphate [3]", "result": "< 1e-05", "unit": "s⁻¹"}
    ]},
    {"variant": "AUAAAAGCGCCAGAACUACAGAAAUGUAUUUGACGAGGAGAAGGUUUAUCGAAUUUUUGGCGGAUGCCUCCAAA", "values": [
      {"measurement": "self-cleavage kobs at 40 uM GlcN6P", "setting": "glucosamine-6-phosphate [1]", "result": "< 1e-05", "unit": "s⁻¹"},
      {"measurement": "self-cleavage kobs at 10000 uM GlcN6P", "setting": "glucosamine-6-phosphate [3]", "result": "< 1e-05", "unit": "s⁻¹"}
    ]},
    {"variant": "AUAAAAGCGCCAGAACUACAGAAAUGUAGUUGAGGAGGAUGAGGUUUAUCGAAUUUUCGGCGCAUGCUUCCAAA", "values": [
      {"measurement": "self-cleavage kobs at 40 uM GlcN6P", "setting": "glucosamine-6-phosphate [1]", "result": "< 1e-05", "unit": "s⁻¹"},
      {"measurement": "self-cleavage kobs at 10000 uM GlcN6P", "setting": "glucosamine-6-phosphate [3]", "result": "< 1e-05", "unit": "s⁻¹"}
    ]},
    {"variant": "AUAAAAGCGUCAGAACUACAGAAAUGUAGUUAACGAGGAGGAAGUUUAUCGAAUUUUCGGCGGAUGCCUCAAAA", "values": [
      {"measurement": "self-cleavage kobs at 40 uM GlcN6P", "setting": "glucosamine-6-phosphate [1]", "result": "< 1e-05", "unit": "s⁻¹"}
    ]},
    {"variant": "AUAAAAGCGCCAGAGCUACAGAAAUGUAGUUGACGAGGAGGAGGUUUAUCGAAUUUUCGGCGGAUGCCUACAAA", "values": [
      {"measurement": "self-cleavage kobs at 40 uM GlcN6P", "setting": "glucosamine-6-phosphate [1]", "result": "5.87e-05 ± 7.8e-06", "unit": "s⁻¹"},
      {"measurement": "self-cleavage kobs at 160 uM GlcN6P", "setting": "glucosamine-6-phosphate [5]", "result": "9.45e-05 ± 1.1e-05", "unit": "s⁻¹"},
      {"measurement": "self-cleavage kobs at 640 uM GlcN6P", "setting": "glucosamine-6-phosphate [4]", "result": "0.000211 ± 2.2e-05", "unit": "s⁻¹"},
      {"measurement": "self-cleavage kobs at 2500 uM GlcN6P", "setting": "glucosamine-6-phosphate [2]", "result": "0.000382 ± 4e-05", "unit": "s⁻¹"},
      {"measurement": "self-cleavage kobs at 10000 uM GlcN6P", "setting": "glucosamine-6-phosphate [3]", "result": "0.00111 ± 0.00023", "unit": "s⁻¹"}
    ]},
    {"variant": "AUAAAAGCGCCAGAACUACAGAAAUGUAGUUGACGAGGAGGAGGUUUAUCGAAUUUUGGACGGAUGCCUCCAAA", "values": [
      {"measurement": "self-cleavage kobs at 40 uM GlcN6P", "setting": "glucosamine-6-phosphate [1]", "result": "< 1e-05", "unit": "s⁻¹"}
    ]},
    {"variant": "AUAAAGGCGCCAGAACUACAGAAAUGUAGUUGACGCGGAGGAGGUUUAUCGAAUUUUCGGCGAAUGCCUCCAAA", "values": [
      {"measurement": "self-cleavage kobs at 40 uM GlcN6P", "setting": "glucosamine-6-phosphate [1]", "result": "< 1e-05", "unit": "s⁻¹"},
      {"measurement": "self-cleavage kobs at 10000 uM GlcN6P", "setting": "glucosamine-6-phosphate [3]", "result": "< 1e-05", "unit": "s⁻¹"}
    ]},
    {"variant": "AUAAAUGCGCCAGAACUACAGAAAUGUAGUUGACGAGGAGGAGGUUUAUCGAAUUUUACGCGGGUGCCUCCAAA", "values": [
      {"measurement": "self-cleavage kobs at 40 uM GlcN6P", "setting": "glucosamine-6-phosphate [1]", "result": "< 1e-05", "unit": "s⁻¹"},
      {"measurement": "self-cleavage kobs at 10000 uM GlcN6P", "setting": "glucosamine-6-phosphate [3]", "result": "< 1e-05", "unit": "s⁻¹"}
    ]},
    {"variant": "AUAAAAGCGCCAGAACUACAGAAAUGUAGUUGACGAGGAGGAGGCUUAUCGAAUUUUGGGCGGAUGCCUCCAAA", "values": [
      {"measurement": "self-cleavage kobs at 40 uM GlcN6P", "setting": "glucosamine-6-phosphate [1]", "result": "< 1e-05", "unit": "s⁻¹"},
      {"measurement": "self-cleavage kobs at 160 uM GlcN6P", "setting": "glucosamine-6-phosphate [5]", "result": "< 1e-05", "unit": "s⁻¹"},
      {"measurement": "self-cleavage kobs at 640 uM GlcN6P", "setting": "glucosamine-6-phosphate [4]", "result": "< 1e-05", "unit": "s⁻¹"}
    ]},
    {"variant": "AUAAAAGCGCCAUAACUACAGAAAUGUAGUUGACGAGGAUGAGGUUUUUCGAAUUUUCGGCGGAUGACUCCAAA", "values": [
      {"measurement": "self-cleavage kobs at 40 uM GlcN6P", "setting": "glucosamine-6-phosphate [1]", "result": "< 1e-05", "unit": "s⁻¹"},
      {"measurement": "self-cleavage kobs at 10000 uM GlcN6P", "setting": "glucosamine-6-phosphate [3]", "result": "< 1e-05", "unit": "s⁻¹"}
    ]},
    {"variant": "AUAAAAGCGCCGGAACUACAGAAAUGUAGUUGACGGGGAGGAGGUUUAUCGAAUUUUCGGCGGAUGCCUCCAAA", "values": [
      {"measurement": "self-cleavage kobs at 40 uM GlcN6P", "setting": "glucosamine-6-phosphate [1]", "result": "< 1e-05", "unit": "s⁻¹"},
      {"measurement": "self-cleavage kobs at 160 uM GlcN6P", "setting": "glucosamine-6-phosphate [5]", "result": "< 1e-05", "unit": "s⁻¹"},
      {"measurement": "self-cleavage kobs at 640 uM GlcN6P", "setting": "glucosamine-6-phosphate [4]", "result": "< 1e-05", "unit": "s⁻¹"},
      {"measurement": "self-cleavage kobs at 10000 uM GlcN6P", "setting": "glucosamine-6-phosphate [3]", "result": "< 1e-05", "unit": "s⁻¹"}
    ]},
    {"variant": "AUAAACGCGCCAGAACUACAGAAAUGUAGUUGACGAGGAGGGGGUUUAUCGAAUUUUCGGCGGAUGCCUCCAAA", "values": [
      {"measurement": "self-cleavage kobs at 40 uM GlcN6P", "setting": "glucosamine-6-phosphate [1]", "result": "< 1e-05", "unit": "s⁻¹"},
      {"measurement": "self-cleavage kobs at 160 uM GlcN6P", "setting": "glucosamine-6-phosphate [5]", "result": "< 1e-05", "unit": "s⁻¹"},
      {"measurement": "self-cleavage kobs at 2500 uM GlcN6P", "setting": "glucosamine-6-phosphate [2]", "result": "6.82e-05 ± 1.8e-05", "unit": "s⁻¹"},
      {"measurement": "self-cleavage kobs at 10000 uM GlcN6P", "setting": "glucosamine-6-phosphate [3]", "result": "9.6e-05 ± 1.1e-05", "unit": "s⁻¹"}
    ]},
    {"variant": "AUAAAAGCGCCAGAACUACAGAAAUGUAGGUGACGAGGAGGAGGUUUAUCGAAUUUUCGGCGGAUGCCCCCAAA", "values": [
      {"measurement": "self-cleavage kobs at 40 uM GlcN6P", "setting": "glucosamine-6-phosphate [1]", "result": "0.000101 ± 2.9e-05", "unit": "s⁻¹"},
      {"measurement": "self-cleavage kobs at 640 uM GlcN6P", "setting": "glucosamine-6-phosphate [4]", "result": "0.00045 ± 0.00019", "unit": "s⁻¹"},
      {"measurement": "self-cleavage kobs at 2500 uM GlcN6P", "setting": "glucosamine-6-phosphate [2]", "result": "6.49e-05 ± 3.1e-05", "unit": "s⁻¹"},
      {"measurement": "self-cleavage kobs at 10000 uM GlcN6P", "setting": "glucosamine-6-phosphate [3]", "result": "0.000535 ± 0.00011", "unit": "s⁻¹"}
    ]}
  ]
}
